Here are results for 15 sequences from a protein production outcome set (Wang et al. 2014).

The data set can be described thus: label from the status in PepcDB records.

As for “MAGLVQKFKQMWTPPEDEYDYDFEEMDMDDEEVMDEISSSSYEEEEAYQEPQRESRRSSAPQSGNKVVNIHAAAQLQVVLFKPERFGDETRSVADELIKMHTVVLNLENTSKDVSRRILDFLSGVAYANNGKIKRVSTATFIITPYNVDLTGDDLMDEIESSSMYL”, the protein production entry is “failed”.
The value for “MAGSSTSSSEACTDPYLRCAFNGAALTALGISHSALLAHSPQGCEYLVNNAFASQECDYMETMTLCTKLCVDEIVHGGEDILARTIREVKDLPISALFVLSACGPEIVGDDIVGVCEALQPEVKFRLVPIESAGFRGSQYDGIDIAMDTILKKLVKDDVEKIPGSVCLVAPHANANPTWPADLAWVKQVLFRMGIKVVATLTHRTPIAEIENIASAETSLLLSHDAGQKAADYLSATFGIEQVCKGIPLPIGMTNTQRWLTALGDRFDILKTAEEIVAEGERMVMATCRRKWPMARFMYRTPAAIVADATVGIPLVRFVTEEMEMTPELVALYTSHRSVWELLEGELKSLGLNPKVVYGTDVYKTRKSLQEVRPRVVFGSTIERHASEGLPVAYVVEVVRMMRQFRMINREYFGYTGILNLLECVQNEWVMGWRSKERRYEAKW” was “failed”; that for “MAHGMPTQGKVTISVDEYSSNPTQALTHYNINQSRFQPPHVHMVDPISYDTPKPGGHTRFVCVSDTHSRTDGIQMPYGDVLLHTGDFTELGLPSEVKKFNDWLGSLPYEFKVVIAGNHELTFDKDFMTELVKQDYYRFPSVSKLKPKDFDNVQSLLTNCVYLQDSDVTVKGFRIYGTPWTPWFNGWGFNLPRGQSLLDKWNLIPEGVDILMTHGPPLGFRDWVPKELQRVGCVELLNTVQRRVRPKLHVFGGIHEGYGIMTDGYTTFINASTCTVSFQPTNPPIVFDLPNPTSS” was “failed”.
Under “MAHHHHHHMADQNPDLKVEEALKGADIKLLLIDFDGTLFVDKDIKVPSENIDAIKEAIEKGYMVSICTGRSKVGILSAFGEENLKKMNFYGMPGVYINGTIVYDQIGYTLLDETIETDVYAELISYLVEKNLVNQTIFHRGESNYVTEDNKYADFLQKMYSENRSIIIRHNEMLKYRTMNKLMIVLDPSESKTVIGNLKQKFKNKLTIFTTYNGHAEVTKLGHDKYTGINYLLKHYNISNDQVLVVGDAENDIAMLSNFKYSFAVANATDSAKSHAKCVLPVSHREGAVAYLLKKVFDLKK” stands “not failed”.
Under “MAHLLEKTRKITSILKRSEEQLQDELPYNAITRQLADIIHCNACIINSKGRLLGYFMRYKTNTDRVEQFFQTKIFPDDYVQGANMIYETEANLPVEHDMSIFPIESRDDFPDGLTTIAPIHVSGIRLGSLIIWRNDKKFEDEDLVLVEIASTVVGIQLLNFQREEDEKNIRRRTAVTMAVNTLSYSELRAVSAILGELNGNEGKLTASVIADRIGITRSVIVNALRKLESAGIIESRSLGMKGTYLKVLISDIFEEVKKRDY” stands “failed”; under “MAHRRDRGLLGIWGDLVLTSVFIAAVSLALFWMAAFTLWWQMHAWRTPEVLASTRFSRPDGGEGLSFSLLLPARHEQAVLDHTIQRLLESSHTDFEIIVIVGHDDPETTEVARKAAARDERVRVVVDTHEKKNKPKAMNTALPHCRGDVVGVFDAEDQVHPELLAHVDHAFRSTGADVVQGGVQLINFNSSWYSLRNCLEYFFWFRSRLHLHAQKGFIPLGGNTVFVRTDVLKEADGWDPDCLAEDCDLGVRLSSVGKKVVVAYDSDMVTREETPGSLMSLLKQRTRWNQGFLQVYRKKDWKQLPGFGQRLLARYTLMTPFLQAISGVIIPLNAAVALFLDVPVGIAFITFLPAVTAFVTFVFEVVGLHDFGKQYGLRVRSVHYLKLIVGGPFYQVLLAGAAIRAVWREQRGRNDWELTSHVGAHLTEVIREDVPA”, “failed”.
On to “MAIGIAANRLELLQIADAVAREKGIEKEVVIEAIEDALQKAARARYGAEHDIRVKIDPKTGETTQKRVIEVVSDDAELEGEIGKMPFSIAKRTWRDAEIGKVYEEVLPPFEIGRVQTQMARQVVMHKVREAERERQYDEYKDRVGEIVNGSVKRVEYGNVIVDLGRGEGIMRRDQSIPRENFNVGDRIRAYIYDVRRETKGPQIMLSRAHGGFMAKLFAQEVPEVYDGVIEIRAVARDPGSRAKMAVISNDGSIDPVGACVGMRGSRVQAVVAELQGEKIDIIQWSEDEATFIVNALAPAEVSKVVMDEEDERVEVVVPDEQLSLAIGRRGQNVRLASQLTGWQIDIMTESQESERRQREFAERTALFQEALDVDEVIAQLLVTEGFAAVEDVAYVEPHEIASIEGFDEETAEELQTRAREFLEKEAAELDAKRKALGVEDELLTIEGVTLAMAVALGEGDVKSIEDLAGLVPDDMRGWFENKGGERVREPGILESFNLSPEDAEALIMRARIAMGWVEAPPEPEPEPEFEEESSAEGDVVAEAEEEA”, for which the protein production entry is “failed”.
The value for “MAIPGNMWIYDDGGALIKGGCDVADREFSIEFKGFHHNLSIPTDHATGKPTGTRQHSPMIIVKEFDYSSPYLYKAVATGQNLKSAEIKWYKISDAGQEVEYFNMLLEGVRIVSISPTMASPEDKNNNHLESVELRYEKITWKHCDGNIIFTDAWNERQTA” was “not failed”; that for “MAIPSGATGKEPFLPRTLTVLREGYDGGTFFKDLAAGLTVGIVALPLAMAFAIASGTTPERGLFTAIVAGFLISLLGGSRYQIGGPTGAFVIIIFNVIMKHGYDGLVVTTLLAGAMLLVFGLCRFGALIKYIPYPVTTGFTAGIAVLIFSQQVKDFLGLSMQSVPPDFFEKWQAYIHNAATFDPATCGIAFLALGAIILTRKTIPRIPGPVVGVVLASLTVWALGLDVETIGSRFGGIPTELPTFTLPTVTLERVRQLLPDAMTIALLAGIESLLSCVVADGMTGDKHNSNVELAAQGAANIASVMFGGIPATGAIARTVTNIRSGGRTPVAGMIHAAVLVGFILYLAPLASFIPLASLAAVLMVVAWDMSEMHKFLRLLHAPKSDVLVMCLTFALTVVIDLTVAVYVGVMLASLLFMRRMSEVTQICTCLDGEATKVQGRETAELDVPEGVKVYEIDGPFFFGVADRFQNVLAALDRQPEVFILRMRKVSTLDSTAVNALEVFWRKCRSDGTQLLLSGVRETMRTTLRRMGTLSLIGEGNICENIDAALARAGQVLAERREAEDRPQ” was “failed”; that for “MAISVIMSVYNERPEQVQQAVDSILKQTYLPREFVIVLDNPERSDLKDLLMDYDCRVEMIKLVCNPENLGLAASLNKAIELASSELIARMDADDISVTNRLEVELEALKTRDLDLISGNITYLDEQDEVVGEKSAIPEAEPLIQKILPYGSTIIHPTVLMRKTAVQQVGGYRLLPTAEDYDLWLRLLANGFKIGSINRRVLNYRLRGNSMTSDAWKTYLVSRYIQQLYAERKRTGADSFGRGMSALTDKINDVRAQSTFNRGQKYFTMAMASMRKRKLGQALAALVRAMVTSPDNCYYVINYLRLRTIWSVNGRRYRQQPSD” was “failed”.
The value for “MAIVLLVLHVCTGLRGSPVSGRVRMAVDSGIYLAPCSNNDAQEHLKRTVINGVDRDDYGQYTNVGFGDSVSIWGVKGGNESHWQDIDAGDYLFFYTGDETYSQVAEVLATDQNEGLAEHLWPGFEDTWEFIIYLNEPIPVNIDSNEIADYAGYKQNYILGFQSLRGSAVDEINDEYGSIEGYINANRTDGNHIQTSGGSQDPDEGDDSVVDEVLDEADRDEEAYANIARQLEEVGQVVFYGPPGTGKTYNAQQFARWWLHNLQSEPRESQVRSVTFHPSYTYEDFIEGLTANATENSVSYDIKPGKFKAICEDARVAYQETGPNEEPPRYVLLIDEINRGNLAQIFGETITLLEEDKRGTLHVDLAHSGGSFTIPPNLYVIGTMNTADRSVALVDAALRRRFRFIDFPPDYGVARSRFGFDTEYDLTSAARGERSDLEQLQALSIQAVEQLNETIIELPDLGKGKQIGHSYLLVDPDDEQALVDAWRYEILPLLEEYFYGQLSRIRQELFNQNGDSLVDWEREQIKDFDPETLRESLQAIVNAGLEHHHHHH” was “failed”.
The value for “MAKDKRISLLKVTSMVIIINLLSKITGFIRDFITASKFGTSVSADAFSMSSVVPNIIFAILGAAIVNTFVPIFNDVIVNKGEKRAFKFSNNVITVLTLLSIILTLLGEIFCPQFVKLIAPDFHGYKYLLTIKLTRIFLLIIIVNTWVFLSTAILQAKEHFLIPSLIGIPYNLLVIVYLLFFSSKYGVLGLTEVIVFAMFVQFLIHVPSLARMKYRYKPEFNISDGYLKSMVVLLIPILLGTSVQQITSLFNGRFSSSLETGSVAALSYASRLNSLVMDIFVISIVTVIYPKMTKLSSENKIGELIESFNISIRSITIILFPIITIILIESVPIVKILFQRDAFGNKSTLMTSTALFYYIIGIIAAGLREVLCRMFYALKDTRTPMINSAITVLVNVVLAYYLKDVLRLGGIALASSIAAYVSSILLFIKLNSKLKNINYRKTIGVTIKVIFASIGMGIFLKVLYQIVGQALLKKAIIIEIIGFGGITLIALLIYMLILYLMKVEEINMVSAFLYKKIKRG” was “failed”; that for “MAKDKTSRKAPMGSGRDALMQAFREAQRPLRLDMLLRILGLHRKEKRTLEESLEALQAEGRILRLRGGAWGLTDHMKMVTGTLQVQRTGMGFVLPEDRRRTDIYVHPTQMGEAWHGDKVVVVLLPGGRGRNPEGRIVRILERGLKEMPARVVKRMGRQGLLCRAADARIKVHFLVDVTGLEGKPQKDDILVVSPGERVEDGLWAATAVRHLGSEDDVSVQERLVKINHGVPTEFPVPVLEEAATLPPAPGGGDFADRIDLRHMEFVTIDGARARDFDDAICVEEQGKGWRLWVAIADVSHYVRPGSAMDREALERSNSYYFPQSVEPMLPEALSNGLCSLNPRVPRLAMVAEIYFFGEGSPGKCKFYPAVIESKARLTYGQVNRALLLGDEEERLVLRPVLPMLEQAEKLARVLHQRRRERGSLDFDLPEPEIAFNIYGETVDIRRKVRHFGHQIVEEFMIAANEAVARFLTEKEADFLYRVHPEPEPEKLSALFKVLAGTDIAQGLPREASAGALQTVLQKAHGSAQEFLISRLTLRTMMQARYSPEHEGHFGLASACYCHFTSPIRRYADLVVHRALKRALGGDPGPTPAGGKLVAIADQLSQHERKAMEAEREILKRLTVLLLRSRVGETLTGVISSILDFGFFVELNEVLADGMVRLSSLDDDYYAFIPERQELRGERTGRTFRLGQQVKVRLADVNVGRLEVNLELVREEGDDTPVPTRRRSAASGRDGSGRDGSGRGGRGRSRHDATPRVKASPDASPEVSADGDMPDGDRLPPWIRAATEEDDPRDTTRTRRRRDDDASSRDGGDRRRGRSRNEGARGAGNPARGKAPRDGAGGDRKKGDGRDGKDGQAGGKPAGKGQSRKGKASSHRKGQGRVKKSDE” was “failed”; that for “MAKGNKIPLTFHTYQDAATGTEVVRLTPPDVICHRNYFYQKCFFNDGSKLLFGAAFDGPWNYYLLDLKEQNATQLTEGKGDNTFGGFLSPNDDALYYVKNTRNLMRVDLTTLEEKTIYQVPDDWVGYGTWVANSDCTKMVGIEIKKEDWKPLTDWKKFQEFYFTNPCCRLIRVDLVTGEAETILQENQWLGHPIYRPGDDNTVAFCHEGPHDLVDARMWFINEDGTNMRKVKEHAEGESCTHEFWVPDGSAMIYVSYLKDDTNRYIRSIDPVTLEDRQLRVMPPCSHLMSNYDGTLLVGDGSDAPVDVQDDGGYKIENDPFLYVFNLKTGKEHRIAQHNTSWEVLEGDRQVTHPHPSFTPDNKQVLFTSDVDGKPALYLAKVPDSVWNLEHHHHHH” was “not failed”.
In the case of “MAKGTAVEFQPGGGQARDVFSIAAQAASPAADAGTSAAPAQAAPAPAAVASQAQHFGRTAEPAEPTDLWSYFWNGVTRNYFNFAGRARRKEYWGYCLFWTIALLVIVGIGVFADAEMGNFDSAEMPAMTVGLFGLFLLATFLPSLGMIVRRLHDLGLTGWLCLLILIPTFGSLIILVFALIPTQGRENQWGPVPAGVRV”, the protein production result was “failed”.
